The record followed here is publication PMC6406907, “A H2AX–CARP-1 Interaction Regulates Apoptosis Signaling Following DNA Damage” (Cancers, 2019).

A word on the Kd: it is the equilibrium constant for the complex coming apart. Lower therefore signals tighter binding. Usually koff stands for a measure of how fast the partners let go of each other. What is called kon is the second-order rate constant of association. Read a low kon as slow association.

One assay deals with HeLa cells. Nature of the assay: MTT cell viability/growth inhibition, HeLa. The settings on record: HeLa CARP-1 (Δ600–650) vs WT CARP-1-expressing counterparts, mean of three experiments. Type of assay: cell-based, human. The procedure: (§1) Routine maintenance and culture of MDA-MB-468 (lacking estrogen receptor; ER and having mutant p53) human triple-negative breast cancer (TNBC) cells, human cervical cancer HeLa, human kidney cancer UOK 262, non-small-cell lung cancer H1975, and HCC827 cells was carried out essentially as described previously. Generation and characterization of MDA-MB-468 cells expressing reduced CARP-1 was described previously. The stable sublines were generated by transfecting the MDA-MB-468 and Hela cells with the pcDNA3 vector, pcDNA3-CARP-1 wild-type (WT)-myc-His clone 6.1.2, pcDNA3-CARP-1(Δ600–650)-myc-His, pcDNA3-EGFP, pcDNA3-EGFP-H2AX (1–35), or pcDNA3-EGFP-CARP-1 (636–650) plasmids, followed by selection in the presence of 800 μg/mL neomycin using described methods. The cell lysates from wild-type, untransfected cells, neomycin-resistant pools, or individual sublines were then subjected to MTT-based viability, confocal, immunoprecipitation (IP), and Western blot (WB) analyses as below.
(§2) The cell growth inhibition was assessed using an MTT assay following the established protocols described by us previously.
(§3) Here, we utilized human TNBC MDA-MB-468 and human cervical cancer HeLa cells to conduct an MTT-based dose-response analysis using Adriamycin and CFM compounds. […] Since Adriamycin, CFM-4, and CFM-4.16 have molecular masses of 543.3, 404.9, and 440.3, respectively, we chose to use an equimolar dose of each compound in the MTT assays. […] Prior reports established that phosphorylation of H2AX at serine 139 (γ-H2AX) is involved in DNA damage repair and apoptotic signaling by ATM/ATR and JNKs, respectively. Next, the MDA-MB-468, HeLa, and the kidney cancer UOK 262 cells were treated with a 10 μM dose of the CFM-4.16 or Adriamycin for various time periods. The cell lysates from the control, untreated, and treated cells were analyzed by WB for expression of CARP-1, phospho-JNK1/2, phospho-H2AX, and poly ADP ribose polymerase (PARP) proteins. […] The H2AX activation is also indicative of DNA damage and involves pro-apoptotic JNKs. Our data in Figure 1C and Figure S1B,C (Supplementary Materials) also show activation of JNKs; however, a robust JNK activation is co-incident with H2AX phosphorylation following treatments with Adriamycin or CFM-4.16.
Figure 8 Ectopic expression of TAT-CARP-1 (636–650) peptide results in enhanced viabilities of Adriamycin-treated cells. MDA-MB-468 (A) or HeLa (B) cells were pre-incubated with 300 μg/mL indicated peptides for 72 h, followed by treatments with the noted dose and time of Adriamycin. Determination of viable/live cells was carried out using an MTT assay as described in Section 2. The bar charts in panels A and B represent means of three and two independent experiments, respectively; bars, SE. (C) Indicated cells were either pre-incubated with 6 μg/mL indicated peptides for 72 h or not (Control), followed by treatments with Adriamycin as noted. Cells were then processed for immunofluorescence staining for TAT-CARP-1 peptide (red), γH2AX (green), and DAPI (blue) as detailed in Section 2 and Figure S3 (Supplementary Materials). Insets in C show enlarged areas of respective photomicrographs to indicate presence of TAT-CARP-1 peptide and γH2AX in respective columns. The insets in the top and middle rows of the merge column show co-localization of TAT-CARP-1 peptide, and γH2AX (magnification: 250×).
Figure S7. Disruption of H2AX interaction with CARP-1 results in enhanced viabilities of CFM-4, CFM-4.16, or Adriamycin-treated cells in part due to reduced γH2AX and apoptosis. (A,B,C) Indicated HeLa cell lines were treated with DMSO (Control), noted dose and time of Adriamycin, CFM-4, or CFM-4.16 compounds. Determination of viable/live cells was carried out by MTT assay as in methods. The columns in bar charts in panels A, B, C represent means of three independent […]
experiments; bars, SE. […]

The next assay concerns MDA-MB-468 cells. The experiment in a line: MTT cell viability/growth inhibition, MDA-MB-468. The settings on record: MDA-MB-468 CARP-1 (Δ600–650) vs WT CARP-1-expressing counterparts, MTT, mean of three experiments. Type of assay: cell-based, human. The procedure:
as §1, §2, §3
Figure 7 Disruption of H2AX interaction with CARP-1 results in enhanced viabilities of CFM-4-, CFM-4.16-, or Adriamycin-treated cells in part due to reduced apoptosis. (A,C,D) Indicated MDA-MB-468 cell lines were treated with DMSO (Control), or with the noted dose and time of Adriamycin, CFM-4, or CFM-4.16 compounds. Determination of viable/live cells was carried out by MTT assay as described in Section 2. (B,E,F) Cell lysates derived from vehicle DMSO (Control), or CFM-4-, CFM-4.16-, or Adriamycin-treated cells were added to the wells that had immobilized fluorogenic substrates of noted caspases. The fluorescence released from the activated caspase-dependent cleavage of respective substrate was detected by a plate reader at the excitation and emission wavelengths of 380 nm and 460 nm, respectively, as detailed in Section 2. The columns in bar charts in panels A, C, D and B, […] represent means of three and two independent experiments, respectively; bars, SE. For panels C and D, * p < 0.05, **p < 0.01 and *** p ≤ 0.001 relative to the respective EGFP vector subline. For panels E and F, *** p ≤ 0.05 relative to the respective EGFP vector subline.
Figure 8 Ectopic expression of TAT-CARP-1 (636–650) peptide results in enhanced viabilities of Adriamycin-treated cells. MDA-MB-468 (A) or HeLa (B) cells were pre-incubated with 300 μg/mL indicated peptides for 72 h, followed by treatments with the noted dose and time of Adriamycin. Determination of viable/live cells was carried out using an MTT assay as described in Section 2. […]

Assay [1] has as its target CARP-1 (636–650) peptide, biotin-labelled (human) (UniProt Q8IX12). Nature of the assay: SPR; SPRi (PlexArray HT); CARP-1 (636–650) peptide printed on bare gold-coated PlexArray Nanocapture chip, blocked with 5% non-fat milk; PBST pH 7.4, 25 °C; global fit to a 1:1 interaction model. (In general: In SPR one partner is held on a chip, and binding of the other changes the refractive index at the surface.)

The subject of the next assay is Gst-H2AX. Nature of the assay: Gst-pulldown with Gst-H2AX. Type of assay: binding, human. Particulars: E. coli-expressed, 4 °C, 2 h, WB anti-HA, Figure 5A. On the procedure: Logarithmically growing cells were either untreated or treated with different agents for various time periods. The cells were lysed to prepare protein extracts. IP was carried out by incubating approximately 1 mg of the protein lysate with appropriate antibodies. The immunoprecipitates were then analyzed by SDS-PAGE, followed by WB with respective, interacting protein. For Gst-pulldown, Gst-H2AX or various His-TAT-HA-tagged CARP-1 peptides were generated in Escherichia coli (E. coli) BL21 cells essentially as described by us previously. Briefly, the competent E. coli BL-21 (DE3) pLysS cells were transformed separately with various recombinant pGEX-4T-1 or pTAT-HA constructs. The transformed cells were then subjected to selection by combined presence of ampicillin and chloramphenicol; various isolates for each transformation were obtained and bacterial lysates were characterized for expression of fusion peptides. Cells from each isolate were grown in 4 mL of LB medium containing ampicillin only until the optical density (OD)600 reached 0.4–0.8. Expression of fusion peptides was induced over 2–4 h incubation periods after Isopropyl β-D-1-thiogalactopyranoside (IPTG) addition. The cells were harvested, and pellets were stored at −80 °C overnight. […]

With `O=C1N(Cc2ccccc2Cl)c2ccccc2C12NN=C(c1ccccc1)S2` (stereo not drawn) [CFM-4], the “growth inhibition of CARP-1 (Δ600–650)-expressing cells” value in the assay on HeLa cells and in the assay on MDA-MB-468 cells was “resistant to inhibition by CFM-4 or ADR” throughout.
In assay [1], “H2AX (1–35) peptide (from UniProt P16104 1-35)” showed an equilibrium dissociation constant (Kd) of 126 nM, a koff of 0.000292 s⁻¹ and a kon of 2320 M⁻¹ s⁻¹.

B1: His-TAT-HA-CARP-1 (552–654): E. coli-expressed His-TAT-HA-tagged CARP-1 peptide (peptide)
chain: RPEETHKGRTVPAHVETVVLFFPDVWHCLPTRSEWETLSRGYKQQLVEKLQGERKEADGEQDEEEKDDGEAKEISTPTHWSKLDPKTMKVNDLRKELESRALS
modifications: left off: His, end not stated, kept | TAT, end not stated, kept | HA, end not stated, kept
notes: E. coli-expressed His-TAT-HA-tagged CARP-1 peptide
With B1, the “binding with Gst-H2AX protein” value with Gst-H2AX is given as “bound with Gst-H2AX protein”.
